Target: T1, Arabidopsis thaliana 14-3-3 kappa (Arabidopsis thaliana), P48348
T1 chain: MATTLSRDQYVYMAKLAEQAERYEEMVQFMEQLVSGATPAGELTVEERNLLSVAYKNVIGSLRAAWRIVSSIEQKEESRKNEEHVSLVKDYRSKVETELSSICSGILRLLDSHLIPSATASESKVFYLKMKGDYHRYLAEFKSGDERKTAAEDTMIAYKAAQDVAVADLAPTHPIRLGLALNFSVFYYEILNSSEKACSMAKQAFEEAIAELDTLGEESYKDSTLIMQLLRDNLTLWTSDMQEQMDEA
Experiment: SEC-MALS
Conditions: remark: other sources report otherwise

B1: Arabidopsis thaliana 14-3-3 kappa, P48348 1-248 (natural protein)
chain: MATTLSRDQYVYMAKLAEQAERYEEMVQFMEQLVSGATPAGELTVEERNLLSVAYKNVIGSLRAAWRIVSSIEQKEESRKNEEHVSLVKDYRSKVETELSSICSGILRLLDSHLIPSATASESKVFYLKMKGDYHRYLAEFKSGDERKTAAEDTMIAYKAAQDVAVADLAPTHPIRLGLALNFSVFYYEILNSSEKACSMAKQAFEEAIAELDTLGEESYKDSTLIMQLLRDNLTLWTSDMQEQMDEA
  stoichiometry N: 2
